Consider 3 molecules from patent US20120277286A1, “COMPOSITIONS AND METHODS FOR THE TREATMENT OR PREVENTION OF MITOCHONDRIAL DISEASES” (The Government of the USA, as represented by the Secretary, …, priority 2009, published 2012).

Values joined by “and” are separate entries in the source; they are usually repeats but may differ in a detail not shown here. Equal values may be shown once.

The experiment concerns HeLa cells. The experiment can be described thus: Parkin colocalization with mitochondria scored by confocal microscopy. Conditions: for YFP-Parkin (wild type or indicated mutant) colocalization with mitochondria, % of cells: HeLa cells, 10 μM CCCP, 1 hour; for cells with YFP-Parkin co-localized with TMRE: HeLa, no CCCP, YFP-Parkin alone or with PINK1-myc 1:4. Type of experiment: cell-based. A digest of the protocol:
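Transfected HeLa cells fixed 12–24 h post-transfection in 4% paraformaldehyde. Cells immunostained for mitochondrial markers and imaged by confocal microscopy. Parkin recruitment to mitochondria assessed by line-scan colocalization.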

`N#CC(C#N)=NNc1cccc(Cl)c1` [CCCP, carbonyl cyanide m-chlorophenylhydrazone]: the “YFP-Parkin (wild type or indicated mutant) colocalization with mitochondria, % of cells” value was 78.49±2.61% and 96.0±3.5%.

B1: YFP-Parkin: YFP-tagged Parkin E3 ligase expressed from a transfected vector (protein, UniProt O60260 1-465, looked up)
E3 ubiquitin-protein ligase …: MIVFVRFNSSHGFPVEVDSDTSIFQLKEVVAKRQGVPADQLRVIFAGKELRNDWTVQNCDLDQQSIVHIVQRPWRKGQEMNATGGDDPRNAAGGCEREPQSLTRVDLSSSVLPGDSVGLAVILHTDSRKDSPPAGSPAGRSIYNSFYVYCKGPCQRVQPGKLRVQCSTCRQATLTLTQGPSCWDDVLIPNRMSGECQSPHCPGTSAEFFFKCGAHPTSDKETSVALHLIATNSRNITCITCTDVRSPVLVFQCNSRHVICLDCFHLYCVTRLNDRQFVHDPQLGYSLPCVAGCPNSLIKELHHFRILGEEQYNRYQQYGAEECVLQMGGVLCPRPGCGAGLLPEPDQRKVTCEGGNGLGCGFAFCRECKEAYHEGECSAVFEASGTTTQAYRVDERAAEQARWEAASKETIKKTTKPCPRCHVPVEKNGGCMHMKCPQPQCRLEWCWNCGCEWNRVCMGDHWFDV
modifications: YFP fusion
notes: YFP-tagged Parkin E3 ligase expressed from a transfected vector
On to B1, for which the “YFP-Parkin (wild type or indicated mutant) colocalization with mitochondria, % of cells” value is on record as 94.7±5.8% and the “cells with YFP-Parkin co-localized with TMRE” value was 0±0%.

B2: PINK1: exogenously expressed wild type PINK1 (V5 or myc tagged) (protein, UniProt Q9BXM7 78-581, looked up)
Serine/threonine-protein …: AARLQRQFVVRAWGCAGPCGRAVFLAFGLGLGLIEEKQAESRRAVSACQEIQAIFTQKSKPGPDPLDTRRLQGFRLEEYLIGQSIGKGCSAAVYEATMPTLPQNLEVTKSTGLLPGRGPGTSAPGEGQERAPGAPAFPLAIKMMWNISAGSSSEAILNTMSQELVPASRVALAGEYGAVTYRKSKRGPKQLAPHPNIIRVLRAFTSSVPLLPGALVDYPDVLPSRLHPEGLGHGRTLFLVMKNYPCTLRQYLCVNTPSPRLAAMMLLQLLEGVDHLVQQGIAHRDLKSDNILVELDPDGCPWLVIADFGCCLADESIGLQLPFSSWYVDRGGNGCLMAPEVSTARPGPRAVIDYSKADAWAVGAIAYEIFGLVNPFYGQGKAHLESRSYQEAQLPALPESVPPDVRQLVRALLQREASKRPSARVAANVLHLSLWGEHILALKNLKLDKMVGWLLQQSAATLLANRLTEKCCVETKMKMLFLANLECETLCQAALLLCSWRAAL
modifications: V5 or myc tag
As to B2, the “cells with YFP-Parkin co-localized with TMRE” value is given as 45.3±7.6%.
